Earlier results, collected in article PMC3432731.

Target: Cyclin A (Homo sapiens) (UniProt P20248)
Chain of UniProt P20248 (P20248 whole entry): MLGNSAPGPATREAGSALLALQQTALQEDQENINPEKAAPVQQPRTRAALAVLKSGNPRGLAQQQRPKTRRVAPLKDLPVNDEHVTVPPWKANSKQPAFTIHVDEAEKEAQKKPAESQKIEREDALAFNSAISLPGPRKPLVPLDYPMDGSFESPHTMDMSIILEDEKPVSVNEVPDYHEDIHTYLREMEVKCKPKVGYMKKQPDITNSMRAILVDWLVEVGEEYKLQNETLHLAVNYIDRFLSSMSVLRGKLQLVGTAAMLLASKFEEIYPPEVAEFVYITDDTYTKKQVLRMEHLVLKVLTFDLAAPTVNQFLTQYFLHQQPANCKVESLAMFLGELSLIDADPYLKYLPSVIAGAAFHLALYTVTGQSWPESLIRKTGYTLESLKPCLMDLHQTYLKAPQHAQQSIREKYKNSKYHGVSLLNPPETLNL

Kd: 25 nM
Substance: p27 (from UniProt P46527)
